Data as given in US20230295310A1 (ABCELLERA BIOLOGICS, published 2023).

Biological target: human EGFR, C-terminal eGFP-tagged, on CHO-K1 cells (human, UniProt P00533 25-1210)
Assay: cell-based or functional assay

Binder | EC50 CHO-K1 EGFR Low (nM); T cell activation bioassay, luciferase [nM] | EC50 CHO-K1 EGFR Med (nM); T cell activation bioassay, luciferase [nM]
GOMP001_bsAb_031 (bispecific antibody, human IgG1, kappa, L234A L235A) heavy 1: QVQLVQSGAEVKKPGASVKVSCKASGYTFTSHWMHWVRKAPGQGLEWIGEFNPSNGRTNYNEEFKSKATMTVDTSTNTAYMELSSLRSEDTAVYYCASRDYDYDGRYFDYWGQGTLVTVSSASTKGPSVFPLAPSSKSTSGGTAALGCLVADYFPEPVTVSWNSGALTSGVHTFPAVLQSSGLYSLSSVVTVPSSSLGTQTYICNVNHKPSNTKVDEKVEPKSCDKTHTCPPCPAPEAAGGPSVFLFPPKPKDTLMISRTPEVTCVVVDVSHEDPEVKFNWYVDGVEVHNAKTKPREEQYNSTYRVVSVLTVLHQDWLNGKEYKCKVSNKALPAPIEKTISKAKGQPREPQVYTLPPSREEMTDNQVSLTCLVKGFYPSDIAVEWESNGQPENNYKTTPPVLMSDGSFFLASKLTVDKSRWQQGNVFSCSVMHEALHNHYTQKSLSLSPG light 1: RIQMTQSPSSLSASVGDRVTITCSASSSVTYMYWYQDKPGKAPKLLIYDTSNLASGVPSRFSGSGSGTDYTFTISSLQPEDIATYYCQQWSSHIFTFGQGTKVEIKRTVAAPSVFIFPPSDKQLKSGTARVVCLLNNFYPREAKVQWKVDNALQSGNSQESVTEQDSKDSTYSLSSTLTLSKADYEKHKVYACEVTHQGLSSPVTKSFNRGEC heavy 2: QGQLVESGGGVVQPGRSLRLSCAASGFTFRGFGMHWVRYAPGKGLEWVAIIYYDGKNKYYADRVKGRFTISRDNSKNTLYLQMNSLRAEDTAVYYCAKGGGYNWFDPWGRGTLVTVSSASTKGPSVFPLAPSSKSTSGGTAALGCLVKDYFPEPVTVSWNSGALTSGVHTFPAVLQSSGLYSLSSVVTVPSSSLGTQTYICNVNHKPSNTKVDKKVEPKSCDKTHTCPPCPAPEAAGGPSVFLFPPKPKDTLMISRTPEVTCVVVDVSHEDPEVKFNWYVDGVEVHNAKTKPREEQYNSTYRVVSVLTVLHQDWLNGKEYKCKVSNKALPAPIEKTISKAKGQPRRPRVYTLPPSREEMTKNQVSLVCLVKGFYPSDIAVEWESNGQPENNYKTTPPVLDSDGSFFLYSVLTVDKSRWQQGNVFSCSVMHEALHNHYTQKSLSLSPG light 2: DIQMTQSPSSLSASVGDRVTITCRASQSISTYLNWYQRKPGDAPKLLIYSASSLQSGVPSRFSGSGSGTDFTLTISNLQPEDFAIYYCQRSYSPPFTFGPGTKLDIRRTVAAPSVFIFPPSDEQLKSGTASVVCLLNNFYPREAKVQWKVDNALQSGNSQESVTEQDSKDSTYSLSSTLTLSKADYEKHKVYACEVTHQGLSSPVTKSFNRGEC | 1.66 | 0.446
GOMP001_bsAb_032 (bispecific antibody, human IgG1, kappa, L234A L235A) heavy 1: QGQLVESGGGVVQPGRSLRLSCAASGFTFRGFGMHWVRYAPGKGLEWVAIIYYDGKNKYYADRVKGRFTISRDNSKNTLYLQMNSLRAEDTAVYYCAKGGGYNWFDPWGRGTLVTVSSASTKGPSVFPLAPSSKSTSGGTAALGCLVKDYFPEPVTVSWNSGALTSGVHTFPAVLQSSGLYSLSSVVTVPSSSLGTQTYICNVNHKPSNTKVDKKVEPKSCDKTHTCPPCPAPEAAGGPSVFLFPPKPKDTLMISRTPEVTCVVVDVSHEDPEVKFNWYVDGVEVHNAKTKPREEQYNSTYRVVSVLTVLHQDWLNGKEYKCKVSNKALPAPIEKTISKAKGQPRRPRVYTLPPSREEMTKNQVSLVCLVKGFYPSDIAVEWESNGQPENNYKTTPPVLDSDGSFFLYSVLTVDKSRWQQGNVFSCSVMHEALHNHYTQKSLSLSPG light 1: DIQMTQSPSSLSASVGDRVTITCRASQSISTYLNWYQRKPGDAPKLLIYSASSLQSGVPSRFSGSGSGTDFTLTISNLQPEDFAIYYCQRSYSPPFTFGPGTKLDIRRTVAAPSVFIFPPSDEQLKSGTASVVCLLNNFYPREAKVQWKVDNALQSGNSQESVTEQDSKDSTYSLSSTLTLSKADYEKHKVYACEVTHQGLSSPVTKSFNRGEC heavy 2: QVQLVQSGAEVKKPGASVKVSCKASGYTFTSHWMHWVRYAPGQGLEWIGEFNPSNGRTNYNEKFKSKATMTVDTSTNTAYMELSSLRSEDTAVYYCASRDYDYDGRYFDYWGRGTLVTVSSASTKGPSVFPLAPSSKSTSGGTAALGCLVKDYFPEPVTVSWNSGALTSGVHTFPAVLQSSGLYSLSSVVTVPSSSLGTQTYICNVNHKPSNTKVDKKVEPKSCDKTHTCPPCPAPEAAGGPSVFLFPPKPKDTLMISRTPEVTCVVVDVSHEDPEVKFNWYVDGVEVHNAKTKPREEQYNSTYRVVSVLTVLHQDWLNGKEYKCKVSNKALPAPIEKTISKAKGQPRRPRVYTLPPSREEMTKNQVSLVCLVKGFYPSDIAVEWESNGQPENNYKTTPPVLDSDGSFFLYSVLTVDKSRWQQGNVFSCSVMHEALHNHYTQKSLSLSPG light 2: DIQMTQSPSSLSASVGDRVTITCSASSSVTYMYWYQRKPGDAPKLLIYDTSNLASGVPSRFSGSGSGTDYTFTISSLQPEDIATYYCQQWSSHIFTFGQGTKVEIKRTVAAPSVFIFPPSDEQLKSGTASVVCLLNNFYPREAKVQWKVDNALQSGNSQESVTEQDSKDSTYSLSSTLTLSKADYEKHKVYACEVTHQGLSSPVTKSFNRGEC | 0.122 | 0.0482

The remaining lines, values ahead:

EC50 CHO-K1 EGFR Low (nM); T cell activation bioassay, luciferase [nM] | EC50 CHO-K1 EGFR Med (nM); T cell activation bioassay, luciferase [nM] | Binder
0.183 | 0.028 | GOMP001_bsAb_037 (bispecific antibody, human IgG1, kappa, L234A L235A) heavy 1: QVQLVQSGAEVKKPGASVKVSCKASGYTFTSHWMHWVRKAPGQGLEWIGEFNPSNGRTNYNEEFKSKATMTVDTSTNTAYMELSSLRSEDTAVYYCASRDYDYDGRYFDYWGQGTLVTVSSASTKGPSVFPLAPSSKSTSGGTAALGCLVADYFPEPVTVSWNSGALTSGVHTFPAVLQSSGLYSLSSVVTVPSSSLGTQTYICNVNHKPSNTKVDEKVEPKSCDKTHTCPPCPAPEAAGGPSVFLFPPKPKDTLMISRTPEVTCVVVDVSHEDPEVKFNWYVDGVEVHNAKTKPREEQYNSTYRVVSVLTVLHQDWLNGKEYKCKVSNKALPAPIEKTISKAKGQPREPQVYTLPPSREEMTDNQVSLTCLVKGFYPSDIAVEWESNGQPENNYKTTPPVLMSDGSFFLASKLTVDKSRWQQGNVFSCSVMHEALHNHYTQKSLSLSPG light 1: RIQMTQSPSSLSASVGDRVTITCSASSSVTYMYWYQDKPGKAPKLLIYDTSNLASGVPSRFSGSGSGTDYTFTISSLQPEDIATYYCQQWSSHIFTFGQGTKVEIKRTVAAPSVFIFPPSDKQLKSGTARVVCLLNNFYPREAKVQWKVDNALQSGNSQESVTEQDSKDSTYSLSSTLTLSKADYEKHKVYACEVTHQGLSSPVTKSFNRGEC heavy 2: EVQLVESGGVLVKTGGSLRLSCVASGFSFKKAWMNWVRYAPGKGLEWVGRIKRNSDGGAADYAARVKDRFTLSRDDSKNTLYLQMNSLKTEDTAVYYCTTLDSSSWYVGYYYMDVWGRGTTVTVSSASTKGPSVFPLAPSSKSTSGGTAALGCLVKDYFPEPVTVSWNSGALTSGVHTFPAVLQSSGLYSLSSVVTVPSSSLGTQTYICNVNHKPSNTKVDKKVEPKSCDKTHTCPPCPAPEAAGGPSVFLFPPKPKDTLMISRTPEVTCVVVDVSHEDPEVKFNWYVDGVEVHNAKTKPREEQYNSTYRVVSVLTVLHQDWLNGKEYKCKVSNKALPAPIEKTISKAKGQPRRPRVYTLPPSREEMTKNQVSLVCLVKGFYPSDIAVEWESNGQPENNYKTTPPVLDSDGSFFLYSVLTVDKSRWQQGNVFSCSVMHEALHNHYTQKSLSLSPG light 2: DIHMTQSPSSVSASLGDRVTFTCRASQNINNWLAWYQRKPGDAPKLLIYTASSLQSGVPSRFSGSGSGTDFTLTISSLQPDDFATYYCQQAHSLPITFGQGTRLGIKRTVAAPSVFIFPPSDEQLKSGTASVVCLLNNFYPREAKVQWKVDNALQSGNSQESVTEQDSKDSTYSLSSTLTLSKADYEKHKVYACEVTHQGLSSPVTKSFNRGEC
0.0248 | 0.00489 | GOMP001_bsAb_038 (bispecific antibody, human IgG1, kappa, L234A L235A) heavy 1: EVQLVESGGVLVKTGGSLRLSCVASGFSFKKAWMNWVRYAPGKGLEWVGRIKRNSDGGAADYAARVKDRFTLSRDDSKNTLYLQMNSLKTEDTAVYYCTTLDSSSWYVGYYYMDVWGRGTTVTVSSASTKGPSVFPLAPSSKSTSGGTAALGCLVKDYFPEPVTVSWNSGALTSGVHTFPAVLQSSGLYSLSSVVTVPSSSLGTQTYICNVNHKPSNTKVDKKVEPKSCDKTHTCPPCPAPEAAGGPSVFLFPPKPKDTLMISRTPEVTCVVVDVSHEDPEVKFNWYVDGVEVHNAKTKPREEQYNSTYRVVSVLTVLHQDWLNGKEYKCKVSNKALPAPIEKTISKAKGQPRRPRVYTLPPSREEMTKNQVSLVCLVKGFYPSDIAVEWESNGQPENNYKTTPPVLDSDGSFFLYSVLTVDKSRWQQGNVFSCSVMHEALHNHYTQKSLSLSPG light 1: DIHMTQSPSSVSASLGDRVTFTCRASQNINNWLAWYQRKPGDAPKLLIYTASSLQSGVPSRFSGSGSGTDFTLTISSLQPDDFATYYCQQAHSLPITFGQGTRLGIKRTVAAPSVFIFPPSDEQLKSGTASVVCLLNNFYPREAKVQWKVDNALQSGNSQESVTEQDSKDSTYSLSSTLTLSKADYEKHKVYACEVTHQGLSSPVTKSFNRGEC heavy 2: QVQLVQSGAEVKKPGASVKVSCKASGYTFTSHWMHWVRYAPGQGLEWIGEFNPSNGRTNYNEKFKSKATMTVDTSTNTAYMELSSLRSEDTAVYYCASRDYDYDGRYFDYWGRGTLVTVSSASTKGPSVFPLAPSSKSTSGGTAALGCLVKDYFPEPVTVSWNSGALTSGVHTFPAVLQSSGLYSLSSVVTVPSSSLGTQTYICNVNHKPSNTKVDKKVEPKSCDKTHTCPPCPAPEAAGGPSVFLFPPKPKDTLMISRTPEVTCVVVDVSHEDPEVKFNWYVDGVEVHNAKTKPREEQYNSTYRVVSVLTVLHQDWLNGKEYKCKVSNKALPAPIEKTISKAKGQPRRPRVYTLPPSREEMTKNQVSLVCLVKGFYPSDIAVEWESNGQPENNYKTTPPVLDSDGSFFLYSVLTVDKSRWQQGNVFSCSVMHEALHNHYTQKSLSLSPG light 2: DIQMTQSPSSLSASVGDRVTITCSASSSVTYMYWYQRKPGDAPKLLIYDTSNLASGVPSRFSGSGSGTDYTFTISSLQPEDIATYYCQQWSSHIFTFGQGTKVEIKRTVAAPSVFIFPPSDEQLKSGTASVVCLLNNFYPREAKVQWKVDNALQSGNSQESVTEQDSKDSTYSLSSTLTLSKADYEKHKVYACEVTHQGLSSPVTKSFNRGEC
